# Source: US20240344241A1, “PROTEINACEOUS MOLECULES AND USES THEREFOR” (THE UNIVERSITY OF QUEENSLAND, priority 2021, published 2024)
# T1: human β-factor XIIa (human), P00748
# T1 chain 1: NGPLSCGQR
# T1 chain 2: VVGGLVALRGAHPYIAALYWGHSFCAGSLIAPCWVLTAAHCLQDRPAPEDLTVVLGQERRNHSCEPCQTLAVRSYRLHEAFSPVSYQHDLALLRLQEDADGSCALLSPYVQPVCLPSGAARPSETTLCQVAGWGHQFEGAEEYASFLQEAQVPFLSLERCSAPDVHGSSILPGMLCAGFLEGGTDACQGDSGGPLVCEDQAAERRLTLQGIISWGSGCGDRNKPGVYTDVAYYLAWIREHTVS
# T2: recombinant human matriptase (human), Q9Y5Y6
# T2 chain: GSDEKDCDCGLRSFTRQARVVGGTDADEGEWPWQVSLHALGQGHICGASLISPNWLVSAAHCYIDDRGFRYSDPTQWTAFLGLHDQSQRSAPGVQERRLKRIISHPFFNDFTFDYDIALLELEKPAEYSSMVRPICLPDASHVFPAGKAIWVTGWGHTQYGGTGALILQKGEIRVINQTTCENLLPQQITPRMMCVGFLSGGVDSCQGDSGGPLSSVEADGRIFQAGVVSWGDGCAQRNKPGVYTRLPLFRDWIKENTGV
# T3: human plasmin (human), P00747
# T3 chain: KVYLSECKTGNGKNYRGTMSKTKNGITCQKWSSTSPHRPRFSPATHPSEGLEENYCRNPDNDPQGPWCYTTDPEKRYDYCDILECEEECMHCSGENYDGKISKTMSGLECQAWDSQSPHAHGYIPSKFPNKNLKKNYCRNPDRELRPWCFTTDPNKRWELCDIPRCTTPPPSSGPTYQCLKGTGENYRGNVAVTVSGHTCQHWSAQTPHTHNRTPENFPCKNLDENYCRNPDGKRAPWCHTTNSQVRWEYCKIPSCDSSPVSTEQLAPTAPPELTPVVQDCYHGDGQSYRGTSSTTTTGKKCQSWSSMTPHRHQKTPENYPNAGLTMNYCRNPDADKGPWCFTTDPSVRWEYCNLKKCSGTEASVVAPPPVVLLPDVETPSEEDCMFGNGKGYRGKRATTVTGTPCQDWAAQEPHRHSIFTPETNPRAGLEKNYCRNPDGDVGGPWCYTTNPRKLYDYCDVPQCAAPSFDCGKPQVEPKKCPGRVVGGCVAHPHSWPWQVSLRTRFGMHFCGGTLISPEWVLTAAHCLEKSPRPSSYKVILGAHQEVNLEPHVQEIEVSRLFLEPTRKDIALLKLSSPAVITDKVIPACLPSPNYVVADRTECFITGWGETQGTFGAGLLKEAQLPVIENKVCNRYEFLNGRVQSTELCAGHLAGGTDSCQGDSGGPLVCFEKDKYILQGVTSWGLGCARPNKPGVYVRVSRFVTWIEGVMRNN
# Key:
# [1] = target: T1, human β-factor XIIa (human), P00748; test: competitive protease inhibition assay, 0.5 nM FXIIa, Boc-QGR-MCA substrate (unit as printed; probably pM)
# [2] = target: human cationic trypsin (human), P07477; test: competitive protease inhibition assay (selectivity panel), human trypsin, Boc-VPR-MCA
# [3] = target: T1, human β-factor XIIa (human), P00748; test: competitive protease inhibition assay, Ac-QRFR-pNA substrate, Morrison Ki
# [4] = target: T2, recombinant human matriptase (human), …; test: competitive protease inhibition assay (selectivity panel), human matriptase, Boc-QAR-MCA
# [5] = target: T3, human plasmin (human), P00747; test: competitive protease inhibition assay (selectivity panel), human plasmin, Ac-RM(O2)YR-pNA
Binder,Ki [1] [nM],Ki [2] [nM],Ki [3] [nM],Ki [4] [nM],Ki [5] [nM]
GGICPRFGRLCRRDSDCPGACICRATRFCGSGSD (modifications not checked) [Cyclic MCoFx6],1.09,–,–,–,–
DGGVCPKILKKCRRDSDCPGACICRATRFCGSGS (modifications not checked) [cMCoTI-fxL5],–,0.08,66,17,31
